Test results from patent US20070196860.

Target: SEQ ID NO. 25, Ac-…dPSxG-NH2

Protein | reaction rate, PDGF-treated NIH3T3 lysate | reaction rate, control treated NIH3T3 lysate
Akt1 (protein) MNDVAIVKEGWLHKRGEYIKTWRPRYFLLKNDGTFIGYKERPQDVDQRESPLNNFSVAQCQLMKTERPRPNTFIIRCLQWTTVIERTFHVETPEEREEWATAIQTVADGLKRQEEETMDFRSGSPSDNSGAEEMEVSLAKPKHRVTMNEFEYLKLLGKGTFGKVILVKEKATGRYYAMKILKKEVIVAKDEVAHTLTENRVLQNSRHPFLTALKYSFQTHDRLCFVMEYANGGELFFHLSRERVFSEDRARFYGAEIVSALDYLHSEKNVVYRDLKLENLMLDKDGHIKITDFGLCKEGIKDGATMKTFCGTPEYLAPEVLEDNDYGRAVDWWGLGVVMYEMMCGRLPFYNQDHEKLFELILMEEIRFPRTLGPEAKSLLSGLLKKDPTQRLGGGSEDAKEIMQHRFFANIVWQDVYEKKLSPPFKPQVTSETDTRYFDEEFTAQMITITPPDQDDSMECVDSERRPHFPQFSYSASGTA | The PDGF-treated sample showed a reaction rate of 1.13 RFU/sec | the control treated sample had a markedly reduced rate of 0.12 RFU/sec
Akt3 (protein) SDVTIVKEGWVQKRGEYIKNWRPRYFLLKTDGSFIGYKEKPQDVDLPYPLNNFSVAKCQLMKTERPKPNTFIIRCLQWTTVIERTFHVDTPEEREEWTEAIQAVADRLQRQEEERMNCSPTSQIDNIGEEEMDASTTHHKRKTMNDFDYLKLLGKGTFGKVILVREKASGKYYAMKILKKEVIIAKDEVAHTLTESRVLKNTRHPFLTSLKYSFQTKDRLCFVMEYVNGGELFFHLSRERVFSEDRTRFYGAEIVSALDYLHSGKIVYRDLKLENLMLDKDGHIKITDFGLCKEGITDAATMKTFCGTPEYLAPEVLEDNDYGRAVDWWGLGVVMYEMMCGRLPFYNQDHEKLFELILMEDIKFPRTLSSDAKSLLSGLLIKDPNKRLGGGPDDAKEIMRHSFFSGVNWQDVYDKKLVPPFKPQVTSETDTRYFDEEFTAQTITITPPEKYDDDGMDGMDNERRPHFPQFSYSASGRE | The PDGF-treated sample showed a reaction rate of 1.24 RFU/sec | the control treated sample had a markedly reduced rate of 0.28 RFU/sec
